Sequences and labels used below:
B1: αT-catenin head region (aa 1–659) (domain or fragment, Mus musculus, UniProt Q65CL1 1-659, looked up)
chain: MSAETPITLNMDTQDLQIQTFTVEKLLEPLIIQVTTLVNCPQNPSNRKKGRSKRARVLLASVEEATWNLLDKGEMIAKEATVLKEELAAALQEVRKESKALKVSAERFTDDPCYLPKREAVVQAARALLAAVTRLLVLADMIDVMCLLQHVSSFQRTFESLKNVSNKSDLQRTYQKLGKELESLDYLAFKRQQDLKSPSQRDEIAGARATLKENSPLLHSICSACLEHSDVASLKASKDTVCEEIQNALDVISNASQGIQNAPAPPEPQAATLGSAFDELENLIVLNPLTVTEEDVRPSLEKRLEAIISGAALLADSSCTRDLHRERIIAECNAIRQALQDLLTEYMSNTGKTERSNTLNTAIVNMSKKTRDLRRQLRKAIIDHISDSFLDTTVPLLVLIEAAKNGRVKEIKDYAAIFHEHTGRLVEVANLACSMSTNEDGIKIVRIAANHLETLCPQIINAALALASRPKSQVVKNTMEMYKRTWEHYIHVLTEAVDDITSIDDFLAVSESHILEDVNKCIIALRDQDADNLDRAAGAIRGRAARVAHIVAGEMDSYEPGAYTEGVMRNVNFLTSTVIPEFVTQVNVALDALSKNSLTALDDNQFVDISKKIYDTIHDIRCSVMMIRTPEELEDVSDLEDDHEVRSHTSIQTEGKTDR
notes: αT-catenin, Mus musculus, head region (N- and M-domains), aa 1-659; in pGEX-TEV; also called αT-catenin head (1–659); αT-catenin N1-M3 (aa 1–659); source: E. coli BL21-Gold, purified (glutathione-agarose, TEV cleavage, Mono Q or Mono S, S200)
B5: β-catenin (natural protein, Mus musculus, UniProt Q02248 1-781, looked up)
chain: MATQADLMELDMAMEPDRKAAVSHWQQQSYLDSGIHSGATTTAPSLSGKGNPEEEDVDTSQVLYEWEQGFSQSFTQEQVADIDGQYAMTRAQRVRAAMFPETLDEGMQIPSTQFDAAHPTNVQRLAEPSQMLKHAVVNLINYQDDAELATRAIPELTKLLNDEDQVVVNKAAVMVHQLSKKEASRHAIMRSPQMVSAIVRTMQNTNDVETARCTAGTLHNLSHHREGLLAIFKSGGIPALVKMLGSPVDSVLFYAITTLHNLLLHQEGAKMAVRLAGGLQKMVALLNKTNVKFLAITTDCLQILAYGNQESKLIILASGGPQALVNIMRTYTYEKLLWTTSRVLKVLSVCSSNKPAIVEAGGMQALGLHLTDPSQRLVQNCLWTLRNLSDAATKQEGMEGLLGTLVQLLGSDDINVVTCAAGILSNLTCNNYKNKMMVCQVGGIEALVRTVLRAGDREDITEPAICALRHLTSRHQEAEMAQNAVRLHYGLPVVVKLLHPPSHWPLIKATVGLIRNLALCPANHAPLREQGAIPRLVQLLVRAHQDTQRRTSMGGTQQQFVEGVRMEEIVEGCTGALHILARDVHNRIVIRGLNTIPLFVQLLYSPIENIQRVAAGVLCELAQDKEAAEAIEAEGATAPLTELLHSRNEGVATYAAAVLFRMSEDKPQDYKKRLSVELTSSLFRTEPMAWNETADLGLDIGAQGEALGYRQDDPSYRSFHSGGYGQDALGMDPMMEHEMGGHHPGADYPVDGLPDLGHAQDLMDGLPPGDSNQLAWFDTDL
notes: β-catenin, Mus musculus, full length; in pGEX-TEV; source: E. coli BL21-Gold, purified (glutathione-agarose, TEV cleavage, Mono Q or Mono S, S200)

In series [1] the target is B5. Description: ITC; β-catenin (110-150 μM) or β-catenin–Ncad_(cyto) complex (103-158 μM) injected into αT-catenin fragment in the cell; 25 °C; 20 mM Hepes pH 8.0, 150 mM NaCl, 1 mM TCEP. As to conditions: both partners purified. For orientation: In ITC the heat of successive injections is recorded.
The target of series [2] is T1, β-catenin–N-cadherin cytoplasmic tail complex (Mus musculus | , UniProt Q02248 1-781; P15116 746-906).
T1 construct: β-catenin, Mus musculus, full length; N-cadherin cytoplasmic tail (Ncad_(cyto)); the methods name no plasmid for the N-cadherin tail; also called β-catenin–Ncad_(cyto); β-cat–Ncad_(cyto); source: β-catenin: E. coli BL21-Gold, purified
T1 sequence (looked up) 1: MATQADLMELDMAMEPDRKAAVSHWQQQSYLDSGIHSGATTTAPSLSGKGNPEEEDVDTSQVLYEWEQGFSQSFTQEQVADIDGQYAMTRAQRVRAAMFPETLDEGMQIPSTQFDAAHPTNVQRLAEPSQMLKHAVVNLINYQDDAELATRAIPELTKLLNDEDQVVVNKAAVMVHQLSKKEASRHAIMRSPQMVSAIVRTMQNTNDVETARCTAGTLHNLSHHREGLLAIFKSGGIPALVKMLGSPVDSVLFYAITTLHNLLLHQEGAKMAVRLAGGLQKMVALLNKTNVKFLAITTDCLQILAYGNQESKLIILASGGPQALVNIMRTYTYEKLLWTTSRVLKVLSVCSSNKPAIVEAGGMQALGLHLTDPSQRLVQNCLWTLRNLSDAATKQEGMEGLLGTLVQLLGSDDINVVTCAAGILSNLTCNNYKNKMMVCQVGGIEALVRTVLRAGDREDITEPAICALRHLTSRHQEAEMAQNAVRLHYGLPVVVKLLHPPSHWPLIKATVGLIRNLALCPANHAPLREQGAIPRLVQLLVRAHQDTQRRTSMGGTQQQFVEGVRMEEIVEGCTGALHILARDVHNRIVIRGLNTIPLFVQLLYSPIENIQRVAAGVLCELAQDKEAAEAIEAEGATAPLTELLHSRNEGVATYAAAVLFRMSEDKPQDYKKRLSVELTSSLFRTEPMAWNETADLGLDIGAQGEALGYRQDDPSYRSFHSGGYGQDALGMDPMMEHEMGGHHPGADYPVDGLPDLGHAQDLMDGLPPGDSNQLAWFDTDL
T1 sequence (looked up) 2: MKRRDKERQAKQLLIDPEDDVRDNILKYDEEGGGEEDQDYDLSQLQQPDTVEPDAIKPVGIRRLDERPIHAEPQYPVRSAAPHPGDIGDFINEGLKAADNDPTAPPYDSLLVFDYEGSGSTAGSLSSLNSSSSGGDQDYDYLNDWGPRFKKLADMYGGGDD
The description is as above. The note with it: both partners purified.

The target of series [3] is T2, vinculin D1 (Mus musculus, UniProt Q64727).
T2 chain: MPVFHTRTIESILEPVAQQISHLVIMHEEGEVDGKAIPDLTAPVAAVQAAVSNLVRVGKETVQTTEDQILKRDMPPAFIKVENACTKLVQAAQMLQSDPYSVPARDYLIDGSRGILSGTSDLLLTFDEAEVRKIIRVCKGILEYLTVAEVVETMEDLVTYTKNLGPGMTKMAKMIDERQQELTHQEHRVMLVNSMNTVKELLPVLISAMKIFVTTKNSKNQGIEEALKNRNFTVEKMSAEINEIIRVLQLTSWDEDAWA
Description: ITC.

Series [4] deals with the molecule itself. Nature of the series: SEC; analytical SEC of 30 μM protein. In general terms: SEC sorts molecules by how far they enter the pores of the column.
Series [5] deals with B1. Nature of the series: ITC; β-catenin (110-150 μM) or β-catenin–Ncad_(cyto) complex (103-158 μM) injected into αT-catenin fragment in the cell; 25 °C; 20 mM Hepes pH 8.0, 150 mM NaCl, 1 mM TCEP. The note with it: both partners purified.

For B1, the Kd (as a rule, the equilibrium constant for the complex coming apart) worked out at 264 ± 109 nM in series [1] and 5.6 ± 0.6 nM in series [2].

B2: 2I27–αT-catenin M1-M3–2I27 259-667 (protein)
chain: IQNAPAPPEPQAATLGSAFDELENLIVLNPLTVTEEDVRPSLEKRLEAIISGAALLADSSCTRDLHRERIIAECNAIRQALQDLLTEYMSNTGKTERSNTLNTAIVNMSKKTRDLRRQLRKAIIDHISDSFLDTTVPLLVLIEAAKNGRVKEIKDYAAIFHEHTGRLVEVANLACSMSTNEDGIKIVRIAANHLETLCPQIINAALALASRPKSQVVKNTMEMYKRTWEHYIHVLTEAVDDITSIDDFLAVSESHILEDVNKCIIALRDQDADNLDRAAGAIRGRAARVAHIVAGEMDSYEPGAYTEGVMRNVNFLTSTVIPEFVTQVNVALDALSKNSLTALDDNQFVDISKKIYDTIHDIRCSVMMIRTPEELEDVSDLEDDHEVRSHTSIQTEGKTDRAKMTQLPE
modifications: 2I27 fusion at both ends
On to B2, for which, in series [3], the Kd was about 250 nM.

B3: αT-catenin V94D N1-N2 (domain or fragment, Mus musculus, UniProt Q65CL1 1-259, looked up)
chain: MSAETPITLNMDTQDLQIQTFTVEKLLEPLIIQVTTLVNCPQNPSNRKKGRSKRARVLLASVEEATWNLLDKGEMIAKEATVLKEELAAALQEDRKESKALKVSAERFTDDPCYLPKREAVVQAARALLAAVTRLLVLADMIDVMCLLQHVSSFQRTFESLKNVSNKSDLQRTYQKLGKELESLDYLAFKRQQDLKSPSQRDEIAGARATLKENSPLLHSICSACLEHSDVASLKASKDTVCEEIQNALDVISNASQGI
notes: αT-catenin N1-N2 (aa 1-259) with V94D, a point mutation linked to arrhythmogenic ventricular cardiomyopathy in humans; also called V94D mutant; source: E. coli BL21-Gold, purified (glutathione-agarose, TEV cleavage, Mono Q or Mono S, S200)
For B3, the stoichiometry N – broadly, a count of units in the complex or per binding partner – in series [4] turned out to be 2.

B4: αT-catenin N1-N2 (aa 1–259) (domain or fragment, Mus musculus, UniProt Q65CL1 1-259, looked up)
chain: MSAETPITLNMDTQDLQIQTFTVEKLLEPLIIQVTTLVNCPQNPSNRKKGRSKRARVLLASVEEATWNLLDKGEMIAKEATVLKEELAAALQEVRKESKALKVSAERFTDDPCYLPKREAVVQAARALLAAVTRLLVLADMIDVMCLLQHVSSFQRTFESLKNVSNKSDLQRTYQKLGKELESLDYLAFKRQQDLKSPSQRDEIAGARATLKENSPLLHSICSACLEHSDVASLKASKDTVCEEIQNALDVISNASQGI
notes: αT-catenin, Mus musculus, N1-N2, aa 1-259; in pGEX-TEV; also called αT-catenin WT N1-N2; αT-catenin N1-N2 (1–259); source: E. coli BL21-Gold, purified (glutathione-agarose, TEV cleavage, Mono Q or Mono S, S200)
On to B4, for which the Kd in series [2] worked out at 6.9 ± 12 nM.
With B5, in series [5], the dH was -14.6 ± 2.1 kcal/mol.

The values are drawn from publication PMC8091058, “Distinct intramolecular interactions regulate autoinhibition of vinculin binding in αT-catenin and αE-catenin” (The Journal of Biological Chemistry, 2021).
